# Test results published in the supplement of paper PMC12338614.
# ± gives the uncertainty stated by the source.
# B1: library; numbered along this chain (parent)
# chain: MEVVDPQQLGMFTEGELMSVGMDTFIHRIDSTEVIYQPRRKRAKLIGKYLMGDLLGEGSYGKVKEVLDSETLCRRAVKILKKKKLRRIPNGEANVKKEIQLLRRLRHKNVIQLVDVLYNEEKQKMYMVMEYCVCGMQEMLDSVPEKRFPVCQAHGYFCQLIDGLEYLHSQGIVHKDIKPGNLLLTTGGTLKISDLGVAEALHPFAADDTCRTSQGSPAFQPPEIANGLDTFSGFKVDIWSAGVTLYNITTGLYPFEGDNIYKLFENIGKGSYAIPGDCGPPLSDLLKGMLEYEPAKRFSIRQIRQHSWFRKKHPPAEAPVPIPPSPDTKDRWRSMTVVPYLEDLHGADEDEDLFDIEDDIIYTQDFTVPGQVPEEEASHNGQRRGLPKAVCMNGTEAAQLSTKSRAEGRAPNPARKACSASSKIRRLSACKQQ
# Variants of: B1
# Experiment: STK11 functional score (HeLa growth suppression), rescaled enrichment; synonymous median = 1, nonsense median = 0 (normalised score)
# Conditions: with HeLa; variant type: missense
# How it was run: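 In HeLa, Bxb1 integrated POPCode codon-randomised libraries of codon-optimised STK11 at an AAVS1 landing pad; three regions were each transfected three times. Integrants, marked as BFP-negative and mCherry-positive, were FACS-sorted 4–5 days after electroporation and expanded for about two weeks before tiled gDNA amplicons were sequenced on NextSeq (~2 million reads per tile). Each functional score is a post/pre-selection log ratio corrected to wild type, rescaled to the synonymous and nonsense medians, and merged across codons and replicate transfections, with error estimated by bootstrapping.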
row,Variant,STK11 functional score
1,MEVVDPQQLGMFTEGELMSVGMDTFIHRIDSTEVIYQPRRKRAKLIGKYLMGDLLGEGSYGKVKEVLDSETLCRRAVKILKKKKLRRIPNGEANVKKEIQLLRRLRHKNVIQLVDVLYNEEKQKMYMVMEYCVCGMQEMLDSVPEKRFPVCQAHGYFCQLIDGLEYLHSQGIVHKDIKPGNLLLTTGGTLKISDLGVAEALHPFAADDTCRTSQGSPAFQPPEIANGLDTFSGFKVDIWSAGVTLYNITTGLYPFEGDNIYKLFENIGKGSYAIPGDCGPPLSDLLKGMLEYEPAKRFSIRQIRQHSWFRKKHPPAEAPVPIPPSPDTKDRWRSMTVVPYLEDLHGADEDEDLFDIEDDIIYTQDFTVPGQVPEEEASHNGQRRGLPKAVCYNGTEAAQLSTKSRAEGRAPNPARKACSASSKIRRLSACKQQ [M392Y],1.04 ± 0.61
2,MEVVDPQQLGMFTEGELMSVGMDTFIHVIDSTEVIYQPRRKRAKLIGKYLMGDLLGEGSYGKVKEVLDSETLCRRAVKILKKKKLRRIPNGEANVKKEIQLLRRLRHKNVIQLVDVLYNEEKQKMYMVMEYCVCGMQEMLDSVPEKRFPVCQAHGYFCQLIDGLEYLHSQGIVHKDIKPGNLLLTTGGTLKISDLGVAEALHPFAADDTCRTSQGSPAFQPPEIANGLDTFSGFKVDIWSAGVTLYNITTGLYPFEGDNIYKLFENIGKGSYAIPGDCGPPLSDLLKGMLEYEPAKRFSIRQIRQHSWFRKKHPPAEAPVPIPPSPDTKDRWRSMTVVPYLEDLHGADEDEDLFDIEDDIIYTQDFTVPGQVPEEEASHNGQRRGLPKAVCMNGTEAAQLSTKSRAEGRAPNPARKACSASSKIRRLSACKQQ [R28V],1.03 ± 0.29
3,MEVVDPQQLGMFTEGELMSVGMDTFIHRIDSTEVIYQPRRKRAKLIGKYLMGDLLGEGSYGKVKEVLDSETLCRRAVKILKKKKLRRIPNGEANVKKEIQLLRRLRHFNVIQLVDVLYNEEKQKMYMVMEYCVCGMQEMLDSVPEKRFPVCQAHGYFCQLIDGLEYLHSQGIVHKDIKPGNLLLTTGGTLKISDLGVAEALHPFAADDTCRTSQGSPAFQPPEIANGLDTFSGFKVDIWSAGVTLYNITTGLYPFEGDNIYKLFENIGKGSYAIPGDCGPPLSDLLKGMLEYEPAKRFSIRQIRQHSWFRKKHPPAEAPVPIPPSPDTKDRWRSMTVVPYLEDLHGADEDEDLFDIEDDIIYTQDFTVPGQVPEEEASHNGQRRGLPKAVCMNGTEAAQLSTKSRAEGRAPNPARKACSASSKIRRLSACKQQ [K108F],1.04 ± 0.3
4,MEVVDPQQLGMFTEGELMSVGMDTFIHRIDSTEVIYQPRRKRAKLYGKYLMGDLLGEGSYGKVKEVLDSETLCRRAVKILKKKKLRRIPNGEANVKKEIQLLRRLRHKNVIQLVDVLYNEEKQKMYMVMEYCVCGMQEMLDSVPEKRFPVCQAHGYFCQLIDGLEYLHSQGIVHKDIKPGNLLLTTGGTLKISDLGVAEALHPFAADDTCRTSQGSPAFQPPEIANGLDTFSGFKVDIWSAGVTLYNITTGLYPFEGDNIYKLFENIGKGSYAIPGDCGPPLSDLLKGMLEYEPAKRFSIRQIRQHSWFRKKHPPAEAPVPIPPSPDTKDRWRSMTVVPYLEDLHGADEDEDLFDIEDDIIYTQDFTVPGQVPEEEASHNGQRRGLPKAVCMNGTEAAQLSTKSRAEGRAPNPARKACSASSKIRRLSACKQQ [I46Y],1.29 ± 0.28
5,MEVVDPQQLGMFTEGELMSVGMDTFIHRIDSTEVIYQPRRKRAKLIGKYLMGDLLGEGSYGKVKEVLDSETLCRRAVKILKKKKLRRIPNGEANVKKEIQLLRRLRHKNVIQLVDVLYNEEKQKMYMVMEYCVCGMQEMLDSVPEKRFPVCQAHGYFCQLIDGLEYLHSQGIVHKDIKPGNLLLTTGGTLFISDLGVAEALHPFAADDTCRTSQGSPAFQPPEIANGLDTFSGFKVDIWSAGVTLYNITTGLYPFEGDNIYKLFENIGKGSYAIPGDCGPPLSDLLKGMLEYEPAKRFSIRQIRQHSWFRKKHPPAEAPVPIPPSPDTKDRWRSMTVVPYLEDLHGADEDEDLFDIEDDIIYTQDFTVPGQVPEEEASHNGQRRGLPKAVCMNGTEAAQLSTKSRAEGRAPNPARKACSASSKIRRLSACKQQ [K191F],0.589 ± 0.19
6,MEVVDPQQLGMFTEWELMSVGMDTFIHRIDSTEVIYQPRRKRAKLIGKYLMGDLLGEGSYGKVKEVLDSETLCRRAVKILKKKKLRRIPNGEANVKKEIQLLRRLRHKNVIQLVDVLYNEEKQKMYMVMEYCVCGMQEMLDSVPEKRFPVCQAHGYFCQLIDGLEYLHSQGIVHKDIKPGNLLLTTGGTLKISDLGVAEALHPFAADDTCRTSQGSPAFQPPEIANGLDTFSGFKVDIWSAGVTLYNITTGLYPFEGDNIYKLFENIGKGSYAIPGDCGPPLSDLLKGMLEYEPAKRFSIRQIRQHSWFRKKHPPAEAPVPIPPSPDTKDRWRSMTVVPYLEDLHGADEDEDLFDIEDDIIYTQDFTVPGQVPEEEASHNGQRRGLPKAVCMNGTEAAQLSTKSRAEGRAPNPARKACSASSKIRRLSACKQQ [G15W],0.148 ± 0.38
7,MEVVDPQQLGMFTEGELMSVGMDTFIHRIDSTEVIYQPRRKRAKLIGKYLMGDLLGEGSYGKVKEVLDSETLCRRAVKILKKKKLRRIPNGEANVKKEIQLLRRLRHKNVIQLVDVLYNEEKQKMYMVMEYCVCGMQEMLDSVPEKRFPVCQAHGYFCQLIDGLEYLHSQGIVHKDIKPGNLLLTTGGTLKISDDGVAEALHPFAADDTCRTSQGSPAFQPPEIANGLDTFSGFKVDIWSAGVTLYNITTGLYPFEGDNIYKLFENIGKGSYAIPGDCGPPLSDLLKGMLEYEPAKRFSIRQIRQHSWFRKKHPPAEAPVPIPPSPDTKDRWRSMTVVPYLEDLHGADEDEDLFDIEDDIIYTQDFTVPGQVPEEEASHNGQRRGLPKAVCMNGTEAAQLSTKSRAEGRAPNPARKACSASSKIRRLSACKQQ [L195D],1.64 ± 0.15
8,MEVVDPQQLGMFTEGELMSVGMDTFIHRIDSTEVIYQPRRKRAKLIGKYLMGDLLGEGSYGKVKEVLDSETLCRRAVKILKKKKLRRIPNGEANVKKEIQLLRRLRHKNVIQLVDVLYNEEKQKMYMVMEYCVCGMQEMLDSVPEKRFPVCQAHGYFCQLIDGLEYLHSQGIVHKDIKPGNLLLTTGGTLKISDLGVAEALHPFAADDTCRTSQGSPAFQPPEIANGRDTFSGFKVDIWSAGVTLYNITTGLYPFEGDNIYKLFENIGKGSYAIPGDCGPPLSDLLKGMLEYEPAKRFSIRQIRQHSWFRKKHPPAEAPVPIPPSPDTKDRWRSMTVVPYLEDLHGADEDEDLFDIEDDIIYTQDFTVPGQVPEEEASHNGQRRGLPKAVCMNGTEAAQLSTKSRAEGRAPNPARKACSASSKIRRLSACKQQ [L228R],1.68 ± 0.26
9,MEVVDPQQLGMFTEGELMSVGMDTFIHRIDSTEVIYQPRRKRAKLIGKYLMGDLLGEGSYGKVKEVLDSETLCRRAVKILKKKKLRRIPNGEANVKKEIQLLRRLRHKNVIQLVDVLYNEEKQKMYMVMEYCVCGMQEMLDSVPEKRFPVCQAHGYFCQLIDGLEYLHSQGIVHKDIKPGNLLLTTGGTLKISDLGVAEALHPFAADDTCRTSQGSPAFQPPEIANGLDTFSGFKVDIWSAGVTLYNITTGLYPFEGDNIYKLFENIGKGSYAIPGDCGPPLSDLLKGMLEYEPAKRFSIRQIRQHSWFRKKHPPAEAPVPIPPSPDTKDRWRSMTVVPYLEDLHGADEDEDLFDIEDDIIYTQDFTVPGQVPEEEASHNGQRRGLPKAVCMNGTEAAQLSTKSRAEGRAPNPARKACSASCKIRRLSACKQQ [S422C],1.44 ± 0.095
10,MEVVDPQQLGMFTEGELMSVGMDTFIHRIDSTEVIYQPRRKRAKLIGKYLMGDLLGEGSYGKVKEVLDSETLCRRAVKILKKKKLRRIPNGEANVKKEIQLLRRLRHKNVIQLVDVLYNEEKQKMYMVMEYCVCGMQEMLDAVPEKRFPVCQAHGYFCQLIDGLEYLHSQGIVHKDIKPGNLLLTTGGTLKISDLGVAEALHPFAADDTCRTSQGSPAFQPPEIANGLDTFSGFKVDIWSAGVTLYNITTGLYPFEGDNIYKLFENIGKGSYAIPGDCGPPLSDLLKGMLEYEPAKRFSIRQIRQHSWFRKKHPPAEAPVPIPPSPDTKDRWRSMTVVPYLEDLHGADEDEDLFDIEDDIIYTQDFTVPGQVPEEEASHNGQRRGLPKAVCMNGTEAAQLSTKSRAEGRAPNPARKACSASSKIRRLSACKQQ [S142A],1.63 ± 0.14
11,MEVVDPQQLGMFTEGELMSVGMDTFIHRIDSTEVIYQPRRKRAKLIGKYLMGDLLGYGSYGKVKEVLDSETLCRRAVKILKKKKLRRIPNGEANVKKEIQLLRRLRHKNVIQLVDVLYNEEKQKMYMVMEYCVCGMQEMLDSVPEKRFPVCQAHGYFCQLIDGLEYLHSQGIVHKDIKPGNLLLTTGGTLKISDLGVAEALHPFAADDTCRTSQGSPAFQPPEIANGLDTFSGFKVDIWSAGVTLYNITTGLYPFEGDNIYKLFENIGKGSYAIPGDCGPPLSDLLKGMLEYEPAKRFSIRQIRQHSWFRKKHPPAEAPVPIPPSPDTKDRWRSMTVVPYLEDLHGADEDEDLFDIEDDIIYTQDFTVPGQVPEEEASHNGQRRGLPKAVCMNGTEAAQLSTKSRAEGRAPNPARKACSASSKIRRLSACKQQ [E57Y],0.95 ± 0.39
12,MEVVDPQQLGMFTEGELMSVGMDTFIHRIDSTEVIYQPRRKRAKLIGKYLMGDLLGEGSYGKVKEVLDSETLCRRAVKILKKKKLRRIPNGEANVKKEIQLLRRLRHKNVIQLVDVLYNEEKQKMYMVMEYCVCGMQEMLDSVPEKRFPVCQAHGYFCQLIDGLEYLHSQGIVHKDIKPGNLLLTTGGTLKISDLGVAEALHPFAADDTCRTSQGSPAFQPPEIANGLDTFSGFKVDIWSAGVTLYNITTGLYPFEGDNIYKLFENIGKGSYAIPGDCGPPLSDLLKGMLEYEPAKRFSIRQIRQHSWFRKKHPPAEDPVPIPPSPDTKDRWRSMTVVPYLEDLHGADEDEDLFDIEDDIIYTQDFTVPGQVPEEEASHNGQRRGLPKAVCMNGTEAAQLSTKSRAEGRAPNPARKACSASSKIRRLSACKQQ [A318D],1.51 ± 0.18
13,MEVVDPQQLGMFTEGELMSVGMDTFIHRIDSTEVIYQPRRKRAKLIGKYLMGDLLGEGSYGKVKEVLDSETLCRRAVKILKKKKLRRIPNGEANVKKEIQLLRRLRHKNVIQLVDVLYNEEKQKMYMVMEYCVCGMQEMLDSVPEKRFPVCQAHGYFCQLIDGLEYLHSQGIVHKDIKPGNLLLTTGGTLKISDLGVAEALHPFAADDTCRTSQGSPAFQPPEIANGLDTFSGFKVDIWSAGVTLYNITTGLYPFEGDNIYKLFENIGKGSYAIPGDCGPPLSDLLKGMLEYEPAKRFSIRQIRQASWFRKKHPPAEAPVPIPPSPDTKDRWRSMTVVPYLEDLHGADEDEDLFDIEDDIIYTQDFTVPGQVPEEEASHNGQRRGLPKAVCMNGTEAAQLSTKSRAEGRAPNPARKACSASSKIRRLSACKQQ [H306A],1.38 ± 0.39
14,MEVVDPQQLGMFTEGELMSVGMDTFIHRIDSTEVIYQPRRKRAKLIGKYLMGDLLGEGSYGKVKEVLDSETLCRRAVKILKKKKLRRIPNGEANVKKEIQLLRRLRHKNVIQLVDILYNEEKQKMYMVMEYCVCGMQEMLDSVPEKRFPVCQAHGYFCQLIDGLEYLHSQGIVHKDIKPGNLLLTTGGTLKISDLGVAEALHPFAADDTCRTSQGSPAFQPPEIANGLDTFSGFKVDIWSAGVTLYNITTGLYPFEGDNIYKLFENIGKGSYAIPGDCGPPLSDLLKGMLEYEPAKRFSIRQIRQHSWFRKKHPPAEAPVPIPPSPDTKDRWRSMTVVPYLEDLHGADEDEDLFDIEDDIIYTQDFTVPGQVPEEEASHNGQRRGLPKAVCMNGTEAAQLSTKSRAEGRAPNPARKACSASSKIRRLSACKQQ [V116I],0.327 ± 0.24
